Where two headings read alike, the source gives them in different places.
Tests used:
Settings in all cases: remark: other sources report otherwise
[1] = target: T1, RBD-FH, monomeric RBD (332-534) with a FLAG peptide and an 8xHis-tag at the C-terminus (SARS-CoV-2), P0DTC2
[2] = target: RBD-Fc, Wuhan strain (WA1) (SARS-CoV-2; human), P0DTC2
[3] = target: T1, RBD-FH, monomeric RBD (332-534) with a …; remark: listed apart in the source

B1: Nb 1.10 (VHH)
VHH: QVQLVESGGGSVQAGGSLRLSCAASGYTYSTCRKGWYRQAPGKERELVASITADGATYYLDSVKGRLTISQDNAKNTVYLQMNSLKPEDTAVYYCAASVKDFTCTFNSWGQGTQVTVSS
Kd [1]: 3.96 nM | koff [1]: 0.00137 s⁻¹ | kon [1]: 345000 M⁻¹ s⁻¹

B2: hcAb 1.10 (Fc fusion)
heavy: B1 VHH
% inhibition of RBD binding to hACE2 [2]: > 95% | Kd [3]: 0.35 nM | koff [3]: 0.000237 s⁻¹ | kon [3]: 679000 M⁻¹ s⁻¹

B3: hcAb 2.15 (Fc fusion)
heavy: QVQLVESGGGSVQAGGSLKLSCAASGYASWARKCIGWFRQAPGQEREGVAAIFDFDGSTYYSDSVKGRFTISGDNAKNTVSLQMNSLLPKDTAVYYCTVAFGTCDNWYRGRGDYWGQGTQVTVSS
% inhibition of RBD binding to hACE2 [2]: > 95% | Kd [3]: 0.08 nM | koff [3]: 0.00012 s⁻¹ | kon [3]: 1.42e+06 M⁻¹ s⁻¹

B4: Nb 2.15 (VHH)
VHH: B3 heavy
Kd [1]: 0.39 nM | koff [1]: 0.000778 s⁻¹ | kon [1]: 2.02e+06 M⁻¹ s⁻¹
